# Measured values from patent US20030143237A1 (University of California, published 2003).
# B1: hAFP137-145, residues 137-145 of SEQ ID NO:2 (peptide)
# peptide: PLFQVPEPV
# notes: One of the four 'dominant' AFP peptides; synthesized by standard techniques
# B2: hAFP158-166, residues 158-166 of SEQ ID NO:2 (peptide)
# peptide: FMNKFIYEI
# notes: as for B1
# B3: hAFP542-550, residues 542-550 of SEQ ID NO:2 (peptide)
# peptide: GVALQTMKQ
# notes: as for B1
# B4: hAFP325-334, residues 325-334 of SEQ ID NO:2 (peptide)
# peptide: GLSPNLNRFL
# notes: as for B1
# Target: T1, HLA-A*0201 (human)
# T1 construct: MHC class I molecule on cells; detected by flow cytometry with anti-HLA-A2 antibody BB7.2; also called HLA-A2; A2.1
# Test: off-kinetics assay on acid-stripped HLA-A*0201 LCL pulsed with peptide and b2 microglobulin, flow cytometry of surface HLA-A2 (stable if MFI at least 1.5-fold over unpulsed cells)
# Description: Next, MHC-peptide complex stability was determined using an off-kinetics assay. […] Each peptide was immediately pulsed onto cells at […] for 1 hour in the presence of b2 microglobulin at 3 ug/ml at room temperature. Excess peptide was washed off and the cells were incubated at 37° C. for 0, 2, 4 and 6 hours. Cells were washed at the end of each time point and stained for cell surface HLA-A2 expression, then analyzed by flow cytometry.
row,Relative Off kinetics,Binder
1,4 h,B1
2,4 h,B2
3,6 h,B3
4,2 h,B4
